Biological target: ATP5B protein
Test: SPR, ATP5B amine-coupled to CM5 chip, peptide in flow at 50 ul/min; binding units relative to SEQ ID NO: 12

Sequence of ATP5B protein (P06576 48-529): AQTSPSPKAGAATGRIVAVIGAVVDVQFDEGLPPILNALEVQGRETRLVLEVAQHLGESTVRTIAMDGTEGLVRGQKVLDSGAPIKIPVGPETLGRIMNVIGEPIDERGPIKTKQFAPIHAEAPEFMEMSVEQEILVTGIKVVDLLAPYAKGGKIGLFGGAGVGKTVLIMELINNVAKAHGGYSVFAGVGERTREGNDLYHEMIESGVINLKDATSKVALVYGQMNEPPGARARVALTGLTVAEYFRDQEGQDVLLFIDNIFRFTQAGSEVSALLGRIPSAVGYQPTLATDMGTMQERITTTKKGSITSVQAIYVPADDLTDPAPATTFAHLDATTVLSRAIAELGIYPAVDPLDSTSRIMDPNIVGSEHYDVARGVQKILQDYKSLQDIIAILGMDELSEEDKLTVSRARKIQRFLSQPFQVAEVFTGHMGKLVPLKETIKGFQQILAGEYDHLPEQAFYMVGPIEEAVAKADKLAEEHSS

Binder | Binding (%)
VDRGAGSIREAGGAFGKAEQAEEERYFR [Shortened substance (8-35) amino acid Ala substituted (25)] | 85.2
VDRGAGSIAEAGGAFGKREQAEEERYFR [Shortened substance (8-35) amino acid Ala substituted (16)] | 97
ADRGAGSIREAGGAFGKREQAEEERYFR [Shortened substance (8-35) amino acid Ala substituted (8)] | 101
VDRGAASIREAGGAFGKREQAEEERYFR [Shortened substance (8-35) amino acid Ala substituted (13)] | 98.5
VDAGAGSIREAGGAFGKREQAEEERYFR [Shortened substance (8-35) amino acid Ala substituted (10)] | 104
VDRGAGAIREAGGAFGKREQAEEERYFR [Shortened substance (8-35) amino acid Ala substituted (14)] | 98.8
VARGAGSIREAGGAFGKREQAEEERYFR [Shortened substance (8-35) amino acid Ala substituted (9)] | 91.6
VDRAAGSIREAGGAFGKREQAEEERYFR [Shortened substance (8-35) amino acid Ala substituted (11)] | 100
VDRGAGSIREAGGAFGAREQAEEERYFR [Shortened substance (8-35) amino acid Ala substituted (24)] | 100
VDRGAGSIREAGGAFGKREQAEEERYFR [Shortened substance (8-35)] | 100
VDRGAGSIRAAGGAFGKREQAEEERYFR [Shortened substance (8-35) amino acid Ala substituted (17)] | 169
VDRGAGSIREAGGAFAKREQAEEERYFR [Shortened substance (8-35) amino acid Ala substituted (23)] | 102
VDRGAGSAREAGGAFGKREQAEEERYFR [Shortened substance (8-35) amino acid Ala substituted (15)] | 99.3
VDRGAGSIREAGAAFGKREQAEEERYFR [Shortened substance (8-35) amino acid Ala substituted (20)] | 68
VDRGAGSIREAGGAAGKREQAEEERYFR [Shortened substance (8-35) amino acid Ala substituted (22)] | 94
VDRGAGSIREAAGAFGKREQAEEERYFR [Shortened substance (8-35) amino acid Ala substituted (19)] | 89.6

Results, then the binder that gave them:

Binding (%) | Binder
426 | VDRGAGSIREAGGAFGKREQAEEEAYFR [Shortened substance (8-35) amino acid Ala substituted (32)]
92.1 | VDRGAGSIREAGGAFGKREQAEEERYAR [Shortened substance (8-35) amino acid Ala substituted (34)]
110 | VDRGAGSIREAGGAFGKREQAEEERYFA [Shortened substance (8-35) amino acid Ala substituted (35)]
146 | VDRGAGSIREAGGAFGKREQAEEERAFR [Shortened substance (8-35) amino acid Ala substituted (33)]
94 | VDRGAGSIREAGGAFGKREQAEAERYFR [Shortened substance (8-35) amino acid Ala substituted (30)]
94.1 | VDRGAGSIREAGGAFGKRAQAEEERYFR [Shortened substance (8-35) amino acid Ala substituted (26)]
158 | VDRGAGSIREAGGAFGKREQAEEARYFR [Shortened substance (8-35) amino acid Ala substituted (31)]
89.5 | VDRGAGSIREAGGAFGKREAAEEERYFR [Shortened substance (8-35) amino acid Ala substituted (27)]
96.7 | VDRGAGSIREAGGAFGKREQAAEERYFR [Shortened substance (8-35) amino acid Ala substituted (29)]

Reference: patent publication US20260274910A1, “SINGLE FUSION PROTEIN AND PHARMACEUTICAL COMPOSITION” (MEDI&GENE INC., priority 2023, published 2026)
